According to patent US20220211812A1 (Bristol-Myers Squibb, published 2022):

T1: human RXFP1 receptor (human, UniProt Q9HBX9 1-757)
T1 sequence (looked up): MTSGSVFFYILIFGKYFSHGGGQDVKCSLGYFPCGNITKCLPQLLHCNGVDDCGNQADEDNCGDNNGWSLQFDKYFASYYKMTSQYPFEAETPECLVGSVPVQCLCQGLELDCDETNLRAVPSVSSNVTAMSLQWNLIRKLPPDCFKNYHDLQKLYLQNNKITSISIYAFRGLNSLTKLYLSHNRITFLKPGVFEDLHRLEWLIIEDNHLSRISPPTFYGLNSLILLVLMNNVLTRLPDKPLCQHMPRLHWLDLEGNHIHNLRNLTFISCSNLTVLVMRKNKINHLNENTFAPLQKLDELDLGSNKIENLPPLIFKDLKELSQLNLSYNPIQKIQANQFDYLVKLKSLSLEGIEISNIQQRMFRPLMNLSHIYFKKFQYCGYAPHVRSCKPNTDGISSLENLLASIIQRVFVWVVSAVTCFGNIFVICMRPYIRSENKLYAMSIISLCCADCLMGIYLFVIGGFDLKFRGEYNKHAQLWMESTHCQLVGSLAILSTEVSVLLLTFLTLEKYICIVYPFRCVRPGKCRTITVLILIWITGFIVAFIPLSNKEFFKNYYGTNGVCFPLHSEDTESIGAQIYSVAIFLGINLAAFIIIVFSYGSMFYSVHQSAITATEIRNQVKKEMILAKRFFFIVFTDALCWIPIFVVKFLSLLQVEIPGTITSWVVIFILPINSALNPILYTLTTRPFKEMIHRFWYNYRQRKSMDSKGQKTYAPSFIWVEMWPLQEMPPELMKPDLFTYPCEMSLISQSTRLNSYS

B1: AQ1-KGPGSE-Glu^γ-C14-COOH (ligand)
chain 1: XLYSALANKCCHVGCTKRSLARFC
chain 2: ASWMEEVIKLCGRELVRAQIAICGMSTWS
peptide: KGPGSEE
modifications: not fully specified; Glu^γ bonded by amide to fatty acid -C14-COOH; oxime-linked to pAcF of the A chain; pAcF (para-acetyl-L-phenylalanine) at position 1, oxime-linked to PK enhancer KGPGSE-Glu^γ-C14-COOH
B2: AQ1-Spermine-Glu^γ-C14-COOH (ligand)
chain 1: XLYSALANKCCHVGCTKRSLARFC
chain 2: ASWMEEVIKLCGRELVRAQIAICGMSTWS
modifications: not fully specified; pAcF (para-acetyl-L-phenylalanine) at position 1, oxime-linked to PK enhancer Spermine-Glu^γ-C14-COOH (compound 27 of Example 6)
B3: AQ1-KKGGS-Glu^γ -C15-COOH (ligand)
chain 1: XLYSALANKCCHVGCTKRSLARFC
chain 2: ASWMEEVIKLCGRELVRAQIAICGMSTWS
peptide: KKGGSE
modifications: not fully specified; Glu^γ bonded by amide to fatty acid -C15-COOH; oxime-linked to pAcF of the A chain; pAcF (para-acetyl-L-phenylalanine) at position 1, oxime-linked to PK enhancer KKGGS-Glu^γ-C15-COOH
B4: AQ1-Glu-C13-COOH (ligand)
chain 1: XLYSALANKCCHVGCTKRSLARFC
chain 2: ASWMEEVIKLCGRELVRAQIAICGMSTWS
modifications: not fully specified; pAcF (para-acetyl-L-phenylalanine) at position 1, oxime-linked to PK enhancer Glu-C13-COOH
B5: AQ1-PEG36-Glu-C13-CH3 (ligand)
chain 1: XLYSALANKCCHVGCTKRSLARFC
chain 2: ASWMEEVIKLCGRELVRAQIAICGMSTWS
modifications: not fully specified; pAcF (para-acetyl-L-phenylalanine) at position 1, oxime-linked to PK enhancer PEG36-Glu-C13-CH3
B6: AQ1-PEG36-Glu-C13-COOH (ligand)
chain 1: XLYSALANKCCHVGCTKRSLARFC
chain 2: ASWMEEVIKLCGRELVRAQIAICGMSTWS
modifications: not fully specified; pAcF (para-acetyl-L-phenylalanine) at position 1, oxime-linked to PK enhancer PEG36-Glu-C13-COOH

Molecular target: T1, human RXFP1 receptor
Assay: cell-based or functional assay

Binder	hRXFP1/CHO-K1 cAMP EC50 (nM, avg) [nM]
B1	0.6
B2	0.39
B3	1.36
B4	0.18
B5	0.15
B6	0.25
